Target: the molecule itself
Assay: SEC

B1: Py-DmBLM (Drosophila Bloom's syndrome helicase homolog with an N-terminal polyoma epitope tag) (enzyme)
chain: not shown
stoichiometry N: ~7
